Measured values reported in the supplement of paper PMC9170038.

Experiments:
MS2 coat protein [1] = assay: apparent KD of MS2 coat protein; designed switch direction (-1 OFF switch, 1 ON switch): 1; higher = weaker reporter binding; conditions: Eterna round: R98
Method: (§1)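 RNA-MaP: designed FMN/MS2 RNA switches (84 nt design region) are transcribed on-chip within common flanks and titrated with SNAP-549-labelled MS2 coat protein (about 1-3000 nM) in 100 mM Tris pH 7.5, 80 mM KCl, 4 mM MgCl2, without or with 200 uM FMN. Median apparent KD per design; activation ratio = KD,OFF / KD,ON.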

MS2 coat protein [2] = assay: apparent KD of MS2 coat protein; higher = weaker reporter binding; conditions: Eterna round: R101
Method: as §1

| Sequence | apparent KD of MS2 coat protein (MS2 coat protein [1]; input ligand: FMN 200 uM) [nM] | apparent KD of MS2 coat protein (MS2 coat protein [1]; input ligand: none) [nM] | apparent KD of MS2 coat protein (MS2 coat protein [2]; input ligand: FMN 200 uM) [nM] | apparent KD of MS2 coat protein (MS2 coat protein [2]; input ligand: none) [nM] |
| --- | --- | --- | --- | --- |
| CAACAAUGGUGAGGAUAUGCAAAGGAUCACCUUGUAGAAGGCAUCAGGUAGAAGGUGCAGAGGAUCACCCUGUAAGGAUAUAUC [pwkr2 ssNG1 DX.21] | 69.9 | 176 | – | – |
| AGAACAUGAGGAUCACCCAUGUGAAGGUCGGCGUAUAAGGGUGAGGAUAUGCUUAAAAUAAGGAAGCAGAAGGUGCUUGGUGCG [SameState #79 NG3] | 102 | 137 | – | – |
| UCGGUUUUCGCAGGAUAUGGAGGAUACUCCCACAUGAGCAUCAGCCAUGUCUGCAUGGAGGAAGGCCAGAAGGGCGAGAACCGA [United States 2 - Jieux - Same State NG 2] | 13.5 | 31.6 | – | – |
| AUCAAUCACAUAGGAUAUAGAAUAUUAUAUUUUUACAUGAGGAUCACCCAUGUUUUAUUGGGAUUCUAGAAGGAUGAGUAAUAA [JR_SSNG2_Sub055Nu] | 96.9 | 147 | – | – |
| CGCUGUAAUGCAGGAUAUGCAUUGGAUUACAAUGCAGAAGGGCGAUUACAUGAGGAUCACCCAUGUAUAAACAGUGAAGAAGAG [Hyphema mod 5] | 26.9 | 51.6 | – | – |
| CUCGUUGUCACAGGAUAUGCCGCCGGACAUGAGGAUCACCCAUGUACCCGCUUGAGAAAACUGCGGUAGAAGGGUGACUUAUAA [Erriisin] | 46 | 110 | – | – |
| CGCUAUUACAUGAGGAUCACCCAUGUAUACAUGGGAUUGUCGUAGGAUAUGCAGAAGAUUAAAGUGCAGAAGGACGGUAUAGCG [JR #DistanceClose #Static #StaticP #NP SSNG3 Sub068] (puzzle (switch architecture): Same State NG 3) | – | – | 1.03 | 3.46 |
| CCGACGACUUAGAAGGCACUCGCAUAAUGCGAGUGAGGAUAUGAGGAUCACCCAUAUCAACGUCGGAGUCACCGAAACGGUGAC [#SharedSequence - IEx NG 4-2] (puzzle (switch architecture): Inverted Exclusion NG 1) | – | – | 7.98 | 8.45 |
| GGAUAGGACAGAGGAUAUACGUGCUAGAGAUACUAGCAAAAUUUCCUCACAUGAGGAUCACCCAUGUAGAAGGCUGUCCUAUCU (puzzle (switch architecture): Exclusion NG 2) | – | – | 395 | 18.6 |
| GCCGUAAUAGCAGGAUAUGCUCCGGUUGCUCAUACAUGAGGAUCACCCAUGUCACGUGCGGUGGUGCAGAAGGGUUGAAGCGAU [Ausaso] | 122 | 465 | – | – |
| GGAUAGGACAGAGGAUAUACGUGCUAGAGAUACUAGCAAAAUUUCCUCACAUGAGGAUCACCCAUGUAGAAGGCGGUCCUAUCG (puzzle (switch architecture): Exclusion NG 2) | – | – | 8.8 | 5.37 |
| UUGGACGUCGUAGGAUAUGUAGGAUAUUCCUACAUGAGGAUCACCCAUGUUGAAAUGGAAGAAGGACAGAAGGACGAUGUCCAU (puzzle (switch architecture): Same State NG 2) | – | – | 3.83 | 19.4 |
| GGAUAGGACAGAGGAUAUACGUGCUAGAGAUACUAGCAAAAUAUCCUCACAUGAGGAUCACCCAUGUAGAAGGCUGUCCUAUCG (puzzle (switch architecture): Exclusion NG 2) | – | – | 20.1 | 5.49 |
| AAAUAACUUGAAGGAUAUGACCCUCGAGGUGACUAAAAGUCACCUCGAGGGUCAGAAGGUCGAGGAUCACCCGACCAAAUAAAU [#SharedSequence SLExNG1: 10] (puzzle (switch architecture): Small Loop Exclusion NG 1) | – | – | 11.2 | 10.9 |
| CCGACGCUUCAGAAGGCACUCGCAUAAUGCGAGUGAGGAUAUGAGGAUCACCCAUAUCAACGUCGGAGUCACCGAAACGGUGAC [#SharedSequence - IEx NG 2-2] (puzzle (switch architecture): Inverted Exclusion NG 1) | – | – | 14.4 | 8.54 |
| GGCAGCUUUCAGAAGGGAGUGCGAUAAUCGCACUCAGGAUAUGAGGAUCACCCAUAUCAUGCUGCCACUGAGGCAAAGCCUCAG [#SharedSequence - IEx NG 3-1] (puzzle (switch architecture): Inverted Exclusion NG 1) | – | – | 13.3 | 11 |
| AGACCUGCUCAGAAGGCGGAAACGAGGCUGGAAACAGCCUCGAAUUAAGAUCUUCGAGGAUCACCCGAGGAUAUGAGCAGGUCA [#SharedSequence - IExNG2: 14] (puzzle (switch architecture): Inverted Exclusion NG 2) | – | – | 593 | 60.7 |
